Test results reported in US20140234868A1, “USE FOR GLYCOLIPOPROTEIN GINTONIN, ISOLATED AND IDENTIFIED FROM GINSENG, AS A NATURAL MEDICAL-PLANT DERIVED LIGAND” (KONKUK UNIVERSITY INDUSTRIAL COOPERATION CORP., priority 2011, published 2014).

B1: gintonin: ginseng-derived glycolipoprotein; structural protein of ginseng major latex-like protein (MLP151) and ribonuclease-like storage proteins; crude gintonin used in tests (protein)
chain 1: MGLTGKLICQTGIKSDGDVFHELFGTRPHHVPNITPANIQGCDLHEGEFGKVGSVVIWNYSIDGNAMIAKEEIVAIDEEDKSVTFKVVEGHLFEEFKSIVFSVHVDTKGEDNLVTWSIDYEKLNESVKDPTSYLDFLLSVTRDIEAHHLPK
chain 2: RSDYPWAMFALRLQWPAGFCEVNNACDTKSLLNTFTIHGLYPYNAKGTPALYCDGTAFDVNSVSDFLAEMHLAWPSHETNTEDIQFWEHEWKKHGRCSEALLKQTDYFRTALAFRKAFDIVGLLNQEGIYPNNDLYRPKMIKEAIKKHLNAVPEIDFTKNENSEYVLTDINVCVNQQATRFVDCPTDDATDDYRLKFVRLPSKMKFADPRTNSII

Key:
BKCaK+ channels = assay: BKCa K+ channel activity in Xenopus oocytes, two-electrode voltage clamp; format: cell-based
Procedure, shortened: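 Two-electrode voltage clamp was performed at room temperature on stage V-VI Xenopus oocytes. Oocytes were perfused with Cl−/Ca2+-free solution, pH 7.4, containing 500 μM anthracene-9-carboxylic acid. Outward currents were recorded on 400 ms steps from −80 mV holding to +40 mV.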

LPA1 receptor = LPA1 receptor (Homo sapiens, UniProt Q92633); assay: Intracellular free Ca2+ (Fura-2AM) in LPA1-expressing B103 cells; format: cell-based; design: host or cells: B103 rat neuroblastoma cells
Chain of LPA1 receptor (Q92633 whole entry): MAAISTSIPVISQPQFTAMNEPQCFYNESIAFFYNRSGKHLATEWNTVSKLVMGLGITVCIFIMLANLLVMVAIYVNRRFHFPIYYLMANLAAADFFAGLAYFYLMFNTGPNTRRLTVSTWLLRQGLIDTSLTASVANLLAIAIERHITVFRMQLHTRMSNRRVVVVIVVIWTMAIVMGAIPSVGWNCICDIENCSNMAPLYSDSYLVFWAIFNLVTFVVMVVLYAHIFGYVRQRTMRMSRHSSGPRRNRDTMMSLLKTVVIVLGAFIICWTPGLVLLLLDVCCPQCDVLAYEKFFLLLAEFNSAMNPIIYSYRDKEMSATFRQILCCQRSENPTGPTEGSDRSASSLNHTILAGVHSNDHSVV
From the text: LPA family receptors are endogenous to cells of most organs. B103 rat neuroblastoma cells, known as LPA receptor-null cells (Valentine et al., Biochim Biophys Acta 1780. 597-605) were transiently transfected with a plasmid (vector) carrying one of genes coding for LPA1(edg-2), LPA2(edg-4), LPA3(edg-7), LPA4, LPA5 and LPA6 receptors or a plasmid carrying none of them (empty vector). Two or three days after transfection, the cells are suspended, and made permeable. Then, the permeable cells are treated with Fura-2AM, a fluorescent dye binding to calcium, and then with gintonin, followed by spectrofluorephotometry to examine whether gintonin induces an increase in intracellular free Ca^2+ level.
(1) preparing large quantities of plasmids carrying respective LPA family receptor genes and an empty plasmid carrying none of them through amplification and purification (maxi-preparation); (2) verifying the expression of LPA receptors wherein B103 cells are transfected with haematoglutin (HA)-tagged LPA receptors, and then subjected to Western blotting analysis using an anti-HA primary antibody and a horseradish peroxidase (HRP)-conjugated secondary antibody to develop a color; (3) verifying the expression of LPA receptors wherein B1-3 cells are transfected with haematoglutin (HA)-tagged LPA receptors, and then subjected to confocal laser microscopy using an anti-HA antibody and a fluorescence dye Cy3-conjugated secondary antibody; (4) transfecting the empty plasmid and each of the plasmids carrying LPA family receptor genes into B103 cells; (5) treating the transfected B103 cells with trypsin (0.05% trypsin with EDTA, w/v) 2-3 days post-transfection, to give a cell suspension; (6) culturing the suspended B103 cells with Fura-2AM (2.5 μM); and (7) treating the suspended B103 cells with gintonin and quantifying a change in intracellular free Ca^2+ level in a cuvette by spectrofluorephotometry using Fura-2AM.
Human LPA (lysophosphatidic acid) receptor subtypes, orphan GPCRs (G protein coupled receptors) and plasmids carrying GPCRs were purchased from Missouri S&T resource Center (www.cDNA.org).
The transient transfection of LPA receptor subtypes was carried out with the aid of Lipofectamine 2000 of Invitrogen. A plasmid (10.8 μg) carrying each LPA receptor (LPA1, LPA2, LPA3, LPA4, LPA5, and LPA6) was transfected into B103 cells grown in 10-cm dishes, and incubated for 2 days prior for use in experiments.
In this Example, gintonin, or ginsenoside Rb1 or Rg1 was examined for its ability to induce a transient increase of [Ca^2+]i in Fura-2AM-loaded B103 cells which were transfected with LPA receptors and in Fura-2AM-loaded B103 cells which were not transfected with LPA receptors. […]

endogenous CaCC = assay: Endogenous Ca2+-activated channel (CaCC) activation in Xenopus oocytes; format: cell-based, Xenopus laevis

Molecule | effect on gintonin-induced BKCaK+ channel activation (BKCaK+ channels; Kil6425 10 μM, U73122, U73343 1 μM, 2-APB 100 μM, BAPTA-AM, PMA 1 μM) | effect on gintonin-induced intracellular calcium increase (LPA1 receptor; LPA1-expressing cells treated with antagonist) | effect on gintonin-induced CaCC activation (endogenous CaCC; Kil6425 10 μM, U73122 1 μM, 2-APB 100 μM, BAPTA 100 μM 3 h) | ED50, BKCaK+ channel activation (BKCaK+ channels; BKCaK+ channels expressed in Xenopus oocytes) [mg/L] | BKCa channel activity on repetitive treatment (desensitization) (BKCaK+ channels; repetitive treatments, data not shown) | transient increase of [Ca2+]i when extracellular Ca2+ was depleted (LPA1 receptor; Ca2+-free buffer containing 0.2 mM EGTA, LPA1-expressing cells) | EC50 (LPA1 receptor; LPA1 receptor, B103 cells, read-out: EC50, LPA receptor-mediated intracellular calcium increase) [nM] | increase in intracellular calcium level (LPA1 receptor; gintonin 1 μg/ml, LPA1-expressing B103 cells) [µM] | CaCC activation (endogenous CaCC; gintonin 1 μg/ml, NMDA receptor-expressing Xenopus oocytes)
Cc1noc(-c2ccc(CSCCC(=O)O)cc2)c1NC(=O)OC(C)c1ccccc1Cl (stereo not drawn) [Kil6425] | reduced the gintonin-induced activation of BKCaK^+ channels | did not increase in intracellular calcium level even in the presence of gintonin | reduced gintonin-induced CaCC activation | – | – | – | – | – | –
B1 | – | – | – | 0.71 ± 0.08 | Repetitive treatments of gintonin reduced BKa channel activity | at a greatly lowered level | 0.1 ± 0.02 | 185.9 ± 12.8 | increases CaCC
